Patent US10428140B2, “Anti-EphA4 antibody” (EISAI R&D MANAGEMENT CO., LTD., priority 2015, dated 2019)

Tests used:
Assay in all cases: Selectivity ELISA of humanized antibodies for human Eph receptor
Assay type in all cases: binding
Conditions in all cases: coated protein 1 nM
human EphA3 = target: T1, human EphA3 (Homo sapiens, UniProt P29320)
T1 construct: a protein of the extracellular region of each human Eph receptor fused with the SEAP protein and the His tag; made in house; host or cells: Expi293F cells (culture supernatant)
T1 sequence (P29320 21-541 limits assumed): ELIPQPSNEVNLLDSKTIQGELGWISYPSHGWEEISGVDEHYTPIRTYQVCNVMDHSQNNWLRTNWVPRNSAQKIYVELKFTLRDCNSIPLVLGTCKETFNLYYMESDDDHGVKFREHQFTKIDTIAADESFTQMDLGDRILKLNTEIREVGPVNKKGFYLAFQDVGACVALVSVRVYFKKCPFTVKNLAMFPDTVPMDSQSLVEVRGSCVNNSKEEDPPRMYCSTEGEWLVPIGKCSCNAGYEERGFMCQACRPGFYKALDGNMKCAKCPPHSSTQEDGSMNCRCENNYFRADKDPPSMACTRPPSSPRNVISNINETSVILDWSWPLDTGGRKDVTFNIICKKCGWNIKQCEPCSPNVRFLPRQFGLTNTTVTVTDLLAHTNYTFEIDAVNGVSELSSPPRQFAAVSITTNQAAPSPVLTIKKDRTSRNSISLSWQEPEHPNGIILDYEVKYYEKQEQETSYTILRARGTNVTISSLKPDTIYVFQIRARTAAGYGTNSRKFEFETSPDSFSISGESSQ
Summary of the method: (§1)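 Steps: coat anti-His antibody; block, then 1% BlockAce overnight at 4 °C; add Eph receptor extracellular region-SEAP-His (1 nM final) 1 h; add humanized antibody 1 h; add HRP anti-IgG 1 h; develop TMB; stop with acid; read 450 nm.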

human EphA6 = target: T2, human EphA6 (Homo sapiens, UniProt Q9UF33)
T2 construct: a protein of the extracellular region of each human Eph receptor fused with the SEAP protein and the His tag; made in house; host or cells: Expi293F cells (culture supernatant)
T2 sequence (Q9UF33 23-550 limits assumed): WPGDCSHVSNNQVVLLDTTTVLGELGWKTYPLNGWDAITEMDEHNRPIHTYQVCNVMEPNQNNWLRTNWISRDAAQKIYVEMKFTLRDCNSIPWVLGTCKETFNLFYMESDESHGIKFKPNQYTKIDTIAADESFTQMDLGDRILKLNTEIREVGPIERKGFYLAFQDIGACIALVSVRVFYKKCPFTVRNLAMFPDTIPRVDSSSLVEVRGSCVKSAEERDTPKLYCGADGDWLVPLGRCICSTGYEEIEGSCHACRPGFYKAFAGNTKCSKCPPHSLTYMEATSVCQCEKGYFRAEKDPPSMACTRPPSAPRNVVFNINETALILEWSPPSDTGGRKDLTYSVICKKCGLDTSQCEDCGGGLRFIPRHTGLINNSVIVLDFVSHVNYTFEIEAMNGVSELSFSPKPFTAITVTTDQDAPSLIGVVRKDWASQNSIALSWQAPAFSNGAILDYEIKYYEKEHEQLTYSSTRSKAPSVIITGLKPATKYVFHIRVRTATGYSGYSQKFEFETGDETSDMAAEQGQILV
Summary of the method: as §1

human EphA7 = target: T3, human EphA7 (Homo sapiens, UniProt Q15375)
T3 construct: a protein of the extracellular region of each human Eph receptor fused with the SEAP protein and the His tag; made in house; host or cells: Expi293F cells (culture supernatant)
T3 sequence (Q15375 28-555 limits assumed): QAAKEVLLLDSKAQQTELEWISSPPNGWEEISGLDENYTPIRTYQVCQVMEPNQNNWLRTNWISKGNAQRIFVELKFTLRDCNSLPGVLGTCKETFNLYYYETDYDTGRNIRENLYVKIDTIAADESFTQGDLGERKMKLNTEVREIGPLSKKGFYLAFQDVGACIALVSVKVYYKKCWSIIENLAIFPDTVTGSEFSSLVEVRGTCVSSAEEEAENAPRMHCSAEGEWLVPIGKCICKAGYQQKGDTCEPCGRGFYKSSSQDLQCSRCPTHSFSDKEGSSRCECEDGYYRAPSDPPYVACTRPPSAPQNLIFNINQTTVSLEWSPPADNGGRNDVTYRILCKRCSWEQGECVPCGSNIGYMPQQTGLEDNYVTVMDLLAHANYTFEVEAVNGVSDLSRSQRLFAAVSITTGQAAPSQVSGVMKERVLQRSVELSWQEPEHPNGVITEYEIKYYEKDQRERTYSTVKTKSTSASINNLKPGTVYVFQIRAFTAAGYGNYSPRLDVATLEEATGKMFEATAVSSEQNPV
Summary of the method: as §1

Molecule	hEphA3-SEAP-: absorbance at 450 nm, percentage with respect to hEphA4-SEAP-His as 100% (human EphA3) [%]	hEphA6-SEAP-: absorbance at 450 nm, percentage with respect to hEphA4-SEAP-His as 100% (human EphA6) [%]	hEphA7-SEAP-: absorbance at 450 nm, percentage with respect to hEphA4-SEAP-His as 100% (human EphA7) [%]
151 (antibody, V domains shown, synthetic humanized antibody heavy chain variable region sequence; synthetic humanized antibody light chain variable region sequence) VH: QIQLVQSGSELKKPGASVKVSCKASGYTFTDYSMHWVRQAPGQGLKWMGWINTETGEPTYAQGFTGRFVFSLDTSVSTAYLQISSLKAEDTAVYYCARIPLYYYGSRYWYFDVWGQGTTVTVSS VL: DIQMTQSPSSLSASVGDRVTITCRASENIYRNLAWYQQKPGKAPKLLLYAATNLADGVPSRFSGSGSGTDYTLTISSLQSEDFATYYCQHFWGTPWTFGQGTKVEIK	6.9	9.9	6.8
159 (antibody, V domains shown, synthetic humanized antibody heavy chain variable region sequence; synthetic humanized antibody light chain variable region sequence) VH: QVQLVQSGSELKKPGASVKVSCKASGYTFTDYSMHWVRQAPGQGLKWMGWINTETGEPTYADDFKGRFVFSLDTSVSTAYLQISSLKAEDTAVYYCARIPLYYYGSRYWYFDVWGQGTTVTVSS VL: DIQMTQSPSSLSASVGDRVTITCRASENIYRNLAWYQQKPGKAPQLLLYAATNLADGVPSRFSGSGSGTDYTLTISSLQPEDFATYYCQHFWGTPWTFGQGTKVEIK	5.4	7.6	5.5
145 (antibody, V domains shown, synthetic humanized antibody heavy chain variable region sequence; synthetic humanized antibody light chain variable region sequence) VH: QVQLVQSGSELKKPGASVKVSCKASGYTFTDYSMHWVRQAPGQGLKWMGWINTETGEPTYADDFKGRFVFSLDTSVSTAYLQISSLKAEDTAVYYCARIPLYYYGSRYWYFDVWGQGTTVTVSS VL: DIQMTQSPSSLSASVGDRVTITCRASENIYRNLAWYQQKPGKAPKLLLYAATNLADGVPSRFSGSGSGTDYTLTISSLQSEDFATYYCQHFWGTPWTFGQGTKVEIK	6.6	8.6	6.3
155 (antibody, V domains shown, synthetic humanized antibody heavy chain variable region sequence; synthetic humanized antibody light chain variable region sequence) VH: QIQLVQSGSELKKPGASVKVSCKASGYTFTDYSMHWVRQAPGQGLKWMGWINTETGEPTYADDFKGRFVFSLDTSVSTAYLQISSLKAEDTAVYYCARIPLYYYGSRYWYFDVWGQGTTVTVSS VL: DIQMTQSPSSLSASVGDRVTITCRASENIYRNLAWYQQKPGKAPKLLLYAATNLADGVPSRFSGSGSGTDYTLTISSLQSEDFATYYCQHFWGTPWTFGQGTKVEIK	5.6	7.2	5.6
157 (antibody, V domains shown, synthetic humanized antibody heavy chain variable region sequence; synthetic humanized antibody light chain variable region sequence) VH: QVQLVQSGSELKKPGASVKVSCKASGYTFTDYSMHWVRQAPGQGLEWMGWINTETGEPTYAQGFTGRFVFSLDTSVSTAYLQISSLKAEDTAVYYCARIPLYYYGSRYWYFDVWGQGTTVTVSS VL: DIQMTQSPSSLSASVGDRVTITCRASENIYRNLAWYQQKPGKAPQLLLYAATNLADGVPSRFSGSGSGTDYTLTISSLQPEDFATYYCQHFWGTPWTFGQGTKVEIK	6.4	9.0	6.0
160 (antibody, V domains shown, synthetic humanized antibody heavy chain variable region sequence; synthetic humanized antibody light chain variable region sequence) VH: QIQLVQSGSELKKPGASVKVSCKASGYTFTDYSMHWVRQAPGQGLKWMGWINTETGEPTYADDFKGRFVFSLDTSVSTAYLQISSLKAEDTAVYYCARIPLYYYGSRYWYFDVWGQGTTVTVSS VL: DIQMTQSPSSLSASVGDRVTITCRASENIYRNLAWYQQKPGKAPQLLLYAATNLADGVPSRFSGSGSGTDYTLTISSLQPEDFATYYCQHFWGTPWTFGQGTKVEIK	6.2	8.7	6.1
158 (antibody, V domains shown, synthetic humanized antibody heavy chain variable region sequence; synthetic humanized antibody light chain variable region sequence) VH: QVQLVQSGSELKKPGASVKVSCKASGYTFTDYSMHWVRQAPGQGLKWMGWINTETGEPTYAQGFTGRFVFSLDTSVSTAYLQISSLKAEDTAVYYCARIPLYYYGSRYWYFDVWGQGTTVTVSS VL: DIQMTQSPSSLSASVGDRVTITCRASENIYRNLAWYQQKPGKAPQLLLYAATNLADGVPSRFSGSGSGTDYTLTISSLQPEDFATYYCQHFWGTPWTFGQGTKVEIK	6.5	10.0	6.3
144 (antibody, V domains shown, synthetic humanized antibody heavy chain variable region sequence; synthetic humanized antibody light chain variable region sequence) VH: QVQLVQSGSELKKPGASVKVSCKASGYTFTDYSMHWVRQAPGQGLEWMGWINTETGEPTYADDFKGRFVFSLDTSVSTAYLQISSLKAEDTAVYYCARIPLYYYGSRYWYFDVWGQGTTVTVSS VL: DIQMTQSPSSLSASVGDRVTITCRASENIYRNLAWYQQKPGKAPQLLLYAATNLADGVPSRFSGSGSGTDYTLTISSLQPEDFATYYCQHFWGTPWTFGQGTKVEIK	5.7	8.1	5.6
154 (antibody, V domains shown, synthetic humanized antibody heavy chain variable region sequence; synthetic humanized antibody light chain variable region sequence) VH: QVQLVQSGSELKKPGASVKVSCKASGYTFTDYSMHWVRQAPGQGLEWMGWINTETGEPTYADDFKGRFVFSLDTSVSTAYLQISSLKAEDTAVYYCARIPLYYYGSRYWYFDVWGQGTTVTVSS VL: DIQMTQSPSSLSASVGDRVTITCRASENIYRNLAWYQQKPGKAPKLLLYAATNLADGVPSRFSGSGSGTDYTLTISSLQSEDFATYYCQHFWGTPWTFGQGTKVEIK	6.2	8.4	6.3
